Laboratory results reported in article PMC3812903 (Biochemistry, 2013).
Where two headings read alike, the source gives them in different places.

Assays:
[1] = biological target: NarJ; settings: cited from earlier work
[2] = biological target: DmsD (Escherichia coli) (UniProt P69853); settings: cited from earlier work
[3] = biological target: DmsD (Escherichia coli) (UniProt P69853); settings: cited from earlier work; remark: listed apart in the source
[4] = biological target: DmsD (His6T7::DmsD construct) (E. coli) (UniProt P69853); assay: ITC
[5] = biological target: DmsAL15-41 (DmsA twin-arginine leader peptide, residues 15-41) (UniProt P18775); assay: ITC; settings: pH 8.0; 30 °C (303.15 K); 100 mM NaCl; 25 mM Tris-HCl (pH 8.0)
[6] = biological target: DmsAL17-41 (DmsA twin-arginine leader peptide, residues 17-41) (UniProt P18775); assay: ITC; settings: pH 8.0; 30 °C (303.15 K); 100 mM NaCl; 25 mM Tris-HCl (pH 8.0)
[7] = biological target: DmsAL21-41 (DmsA twin-arginine leader peptide, residues 21-41) (UniProt P18775); assay: ITC; settings: pH 8.0; 30 °C (303.15 K); 100 mM NaCl; 25 mM Tris-HCl (pH 8.0)
[8] = biological target: DmsAL15-41 KK (DmsA leader peptide residues 15-41, twin arginines changed to lysines) R16K;R17K (UniProt P18775); assay: ITC; settings: pH 8.0; 30 °C (303.15 K); 100 mM NaCl; 25 mM Tris-HCl (pH 8.0)
[9] = biological target: NarJ (Escherichia coli) (UniProt P0AF26); settings: cited from earlier work
UniProt P0AF26, sequence (P0AF26 whole entry): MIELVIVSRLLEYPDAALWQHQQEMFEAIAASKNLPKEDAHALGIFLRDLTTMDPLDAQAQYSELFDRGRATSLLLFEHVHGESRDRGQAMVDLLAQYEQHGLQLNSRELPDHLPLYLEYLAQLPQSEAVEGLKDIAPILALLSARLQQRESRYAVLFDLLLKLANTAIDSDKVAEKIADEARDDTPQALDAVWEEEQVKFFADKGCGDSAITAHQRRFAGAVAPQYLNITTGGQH

[10] = biological target: TorD (Escherichia coli) (UniProt P36662); settings: cited from earlier work
UniProt P36662, sequence (P36662 whole entry): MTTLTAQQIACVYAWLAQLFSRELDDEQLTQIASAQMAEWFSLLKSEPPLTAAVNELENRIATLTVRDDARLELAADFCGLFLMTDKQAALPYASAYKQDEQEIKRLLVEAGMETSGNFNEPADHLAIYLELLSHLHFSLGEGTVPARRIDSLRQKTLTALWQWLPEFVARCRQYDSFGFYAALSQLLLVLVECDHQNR

| Kd [4] [µM] | stoichiometry N [4] | dH [4] [kJ/mol] | Substance | further results |
| --- | --- | --- | --- | --- |
|  |  |  | 15 N-terminal residues of NarG: 15 amino-terminal residues of NarG, contain a remnant RR motif (MSKFLDRFRYFKQKG; UniProt P09152 1-15, looked up, fragment) | Kd [1]: ~0.1 µM |
|  |  |  | DmsA leader peptide 1-43 (from UniProt P18775) | Kd [2]: 0.06 µM; Kd [3]: 0.2 µM |
| 2.9 | 1.09 |  | DmsAL_(15–41 KK) (from UniProt P18775 15-41) (peptide) |  |
| 1.7 | 1.04 | -49 | DmsAL_(15–41) (from UniProt P18775 15-41) (peptide) | Ka [4]: 600000 M⁻¹ |
| 2.1 | 1.04 | -39.7 | DmsAL_(17–41) (from UniProt P18775 17-41) (peptide) |  |
| 3.9 | 1.14 | -18 | DmsAL_(21–41) (from UniProt P18775 21-41) (peptide) | Ka [4]: 260000 M⁻¹ |
|  |  |  | DmsD (Tat proofreading chaperone / redox enzyme maturation protein) | ΔH (apparent, Tris) [5]: -49 kJ/mol; ΔH (apparent, Tris) [6]: -39.7 kJ/mol; ΔH (apparent, Tris) [7]: -18 kJ/mol; ΔH (apparent, Tris) [8]: -41.8 kJ/mol |
|  |  |  | NarG N-terminal peptide 1-15 (from UniProt P09152) | Kd [9]: 0.1 µM |
|  |  |  | TorA leader peptide (from UniProt P33225) | Kd [10]: 1.8 µM |
